Reference: paper PMC9482650, “Quantitative fragmentomics allow affinity mapping of interactomes” (Nature Communications, 2022)

Experiments:
Experiment in all cases: holdup assay
Design in all cases: key: below the threshold = too weak to quantify, mostly under pKd 3.1 to 4
[1] = biological target: T1, DFNB31_2, Q9P202
T1 sequence (Q9P202 274-371, limits assumed, looked up): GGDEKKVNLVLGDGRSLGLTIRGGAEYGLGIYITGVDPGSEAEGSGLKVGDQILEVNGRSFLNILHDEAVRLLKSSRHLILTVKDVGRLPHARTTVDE

[2] = biological target: T2, DFNB31_3, Q9P202
T2 sequence (Q9P202 811-907, limits assumed, looked up): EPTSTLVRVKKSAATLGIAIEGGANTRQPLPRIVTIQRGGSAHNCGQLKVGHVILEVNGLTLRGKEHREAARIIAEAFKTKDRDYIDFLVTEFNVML

[3] = biological target: DLG1_1, Q12959
[4] = biological target: T3, DLG3_3, Q92796
T3 sequence (Q92796 374-475, limits assumed, looked up): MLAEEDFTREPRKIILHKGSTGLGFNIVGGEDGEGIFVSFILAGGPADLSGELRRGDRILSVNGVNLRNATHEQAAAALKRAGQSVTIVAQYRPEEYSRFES

[5] = biological target: T4, GRIP1_4, Q9Y3R0
T4 sequence (Q9Y3R0 467-571, limits assumed, looked up): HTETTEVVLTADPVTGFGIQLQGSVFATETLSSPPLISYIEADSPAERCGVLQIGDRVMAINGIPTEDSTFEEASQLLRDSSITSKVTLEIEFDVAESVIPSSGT

[6] = biological target: T5, GRIP1_5, Q9Y3R0
T5 sequence (Q9Y3R0 568-668, limits assumed, looked up): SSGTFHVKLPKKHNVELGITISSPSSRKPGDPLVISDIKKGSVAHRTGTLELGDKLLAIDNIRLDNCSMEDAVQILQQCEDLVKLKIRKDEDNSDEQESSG

[7] = biological target: GRIP2_5, Q9C0E4
Chain of GRIP2_5, Q9C0E4 (Q9C0E4 544-642): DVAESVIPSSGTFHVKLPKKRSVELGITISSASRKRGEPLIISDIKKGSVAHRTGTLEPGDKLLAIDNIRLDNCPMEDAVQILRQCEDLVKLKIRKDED

[8] = biological target: Inadl_2, Q8NI35
Chain of Inadl_2, Q8NI35 (Q8NI35 238-335): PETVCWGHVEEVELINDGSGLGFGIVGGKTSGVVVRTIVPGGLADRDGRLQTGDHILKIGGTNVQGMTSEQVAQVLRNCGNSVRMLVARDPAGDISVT

[9] = biological target: T6, LIN7B, Q9HAP6
T6 sequence (Q9HAP6 88-185, limits assumed, looked up): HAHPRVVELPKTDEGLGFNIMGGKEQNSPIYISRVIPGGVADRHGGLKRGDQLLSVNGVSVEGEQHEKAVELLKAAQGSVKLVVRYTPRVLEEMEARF

[10] = biological target: LNX1_3, Q8TBB1
Chain of LNX1_3, Q8TBB1 (Q8TBB1 500-596): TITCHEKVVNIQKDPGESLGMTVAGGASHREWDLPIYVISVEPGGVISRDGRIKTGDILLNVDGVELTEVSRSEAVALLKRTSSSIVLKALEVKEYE

[11] = biological target: T7, LRRC7, Q96NW7
T7 sequence (Q96NW7 1440-1537, limits assumed, looked up): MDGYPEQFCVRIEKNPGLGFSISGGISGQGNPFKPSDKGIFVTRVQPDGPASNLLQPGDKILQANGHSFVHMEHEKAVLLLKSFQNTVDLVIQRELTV

[12] = biological target: MAST2, Q6P0Q8
Chain of MAST2, Q6P0Q8 (Q6P0Q8 1099-1202): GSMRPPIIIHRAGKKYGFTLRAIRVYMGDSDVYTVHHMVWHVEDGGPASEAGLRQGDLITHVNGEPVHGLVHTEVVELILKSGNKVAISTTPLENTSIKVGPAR

[13] = biological target: T8, MPDZ_12, O75970
T8 sequence (O75970 1857-1958, limits assumed, looked up): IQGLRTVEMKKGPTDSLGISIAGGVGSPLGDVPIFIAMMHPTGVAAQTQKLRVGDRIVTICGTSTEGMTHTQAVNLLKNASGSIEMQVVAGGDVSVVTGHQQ

[14] = biological target: T9, MPP2, Q14168
T9 sequence (Q14168 180-250, limits assumed, looked up): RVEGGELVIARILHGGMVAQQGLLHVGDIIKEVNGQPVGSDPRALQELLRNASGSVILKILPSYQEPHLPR

[15] = biological target: NHERF2_2, Q15599
Chain of NHERF2_2, Q15599 (Q15599 142-238): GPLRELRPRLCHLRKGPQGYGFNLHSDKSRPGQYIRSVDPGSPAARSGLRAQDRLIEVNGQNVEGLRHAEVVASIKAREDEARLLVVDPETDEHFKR

[16] = biological target: T10, NHERF3_4, Q5T2W1
T10 sequence (Q5T2W1 373-468, limits assumed, looked up): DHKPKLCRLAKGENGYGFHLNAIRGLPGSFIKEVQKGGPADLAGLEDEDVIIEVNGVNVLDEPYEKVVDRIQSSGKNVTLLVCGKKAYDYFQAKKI

[17] = biological target: T11, PARD3B_1, Q8TEW8
T11 sequence (Q8TEW8 196-299, limits assumed, looked up): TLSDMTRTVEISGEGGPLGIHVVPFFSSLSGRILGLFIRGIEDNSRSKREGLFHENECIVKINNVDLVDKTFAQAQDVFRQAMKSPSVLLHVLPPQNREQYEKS

[18] = biological target: T12, PDZD2_2, O15018
T12 sequence (O15018 329-429, limits assumed, looked up): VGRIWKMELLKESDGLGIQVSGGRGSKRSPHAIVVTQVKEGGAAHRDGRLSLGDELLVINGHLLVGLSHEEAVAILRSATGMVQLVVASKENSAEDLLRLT

[19] = biological target: PDZRN4_1, Q6ZMN7
Chain of PDZRN4_1, Q6ZMN7 (Q6ZMN7 213-318): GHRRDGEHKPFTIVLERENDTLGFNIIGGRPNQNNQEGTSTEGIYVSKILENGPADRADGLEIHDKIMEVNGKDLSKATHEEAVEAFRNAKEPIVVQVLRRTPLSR

[20] = biological target: T13, RAPGEF6, Q8TEU7
T13 sequence (Q8TEU7 525-625, limits assumed, looked up): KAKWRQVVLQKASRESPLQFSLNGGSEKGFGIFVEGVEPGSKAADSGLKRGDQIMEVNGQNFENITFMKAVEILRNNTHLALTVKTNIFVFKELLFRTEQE

[21] = biological target: SCRIB_1, Q14160
Chain of SCRIB_1, Q14160 (Q14160 718-814): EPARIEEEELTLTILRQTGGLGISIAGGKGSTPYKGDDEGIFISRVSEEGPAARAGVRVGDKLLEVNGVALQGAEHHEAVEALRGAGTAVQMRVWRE

[22] = biological target: SCRIB_3, Q14160
Chain of SCRIB_3, Q14160 (Q14160 999-1103): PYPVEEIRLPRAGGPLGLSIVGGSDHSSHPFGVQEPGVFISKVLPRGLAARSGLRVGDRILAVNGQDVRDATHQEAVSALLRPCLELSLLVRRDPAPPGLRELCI

[23] = biological target: SNX27, Q96L92
[24] = biological target: TJP2_1, Q9UDY2
Chain of TJP2_1, Q9UDY2 (Q9UDY2 24-128): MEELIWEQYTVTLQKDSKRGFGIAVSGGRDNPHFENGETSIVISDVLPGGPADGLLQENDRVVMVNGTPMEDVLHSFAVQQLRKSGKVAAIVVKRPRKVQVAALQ

[25] = plain residues with an end cap or a label only (N-terminal biotin on a linker: ado-ado)
[26] = modified: phospho on S at position -3 from the C-terminal residue
[27] = modified: acetyl on K at position -1 from the C-terminal residue

Binder: FEEEAEEEVA [TUBB4B, P68371]
- pKd [1, 25]: below the threshold
- pKd [2, 25]: 3.89
- pKd [3, 25]: below the threshold
- pKd [4, 25]: below the threshold
- pKd [5, 25]: below the threshold
- pKd [6, 25]: below the threshold
- pKd [7, 25]: below the threshold
- pKd [8, 25]: below the threshold
- pKd [9, 25]: 3.58
- pKd [10, 25]: below the threshold
- pKd [11, 25]: below the threshold
- pKd [12, 25]: below the threshold
- pKd [13, 25]: below the threshold
- pKd [14, 25]: 3.77
- pKd [15, 25]: below the threshold
- pKd [16, 25]: below the threshold
- pKd [17, 25]: 3.98
- pKd [18, 25]: below the threshold
- pKd [19, 25]: below the threshold
- pKd [20, 25]: below the threshold
- pKd [21, 25]: below the threshold
- pKd [22, 25]: below the threshold
- pKd [23, 25]: below the threshold
- pKd [24, 25]: below the threshold

Binder: RRVRKLPSTTL [RPS6KA1_-3P, Q15418]
- pKd [1, 26]: below the threshold
- pKd [2, 26]: below the threshold
- pKd [3, 26]: 3.69
- pKd [4, 26]: below the threshold
- pKd [5, 26]: below the threshold
- pKd [6, 26]: below the threshold
- pKd [7, 26]: below the threshold
- pKd [8, 26]: below the threshold
- pKd [9, 26]: below the threshold
- pKd [10, 26]: below the threshold
- pKd [11, 26]: below the threshold
- pKd [12, 26]: 4.21
- pKd [13, 26]: below the threshold
- pKd [14, 26]: below the threshold
- pKd [15, 26]: 3.68
- pKd [16, 26]: below the threshold
- pKd [17, 26]: 4.62
- pKd [18, 26]: below the threshold
- pKd [19, 26]: 3.98
- pKd [20, 26]: below the threshold
- pKd [21, 26]: 4.07
- pKd [22, 26]: 4.35
- pKd [23, 26]: 4.1
- pKd [24, 26]: 3.57

Binder: DEDQHTQITKV [PTEN_Ac, P60484]
- pKd [1, 27]: below the threshold
- pKd [2, 27]: 4.25
- pKd [3, 27]: 4.15
- pKd [4, 27]: below the threshold
- pKd [5, 27]: below the threshold
- pKd [6, 27]: below the threshold
- pKd [7, 27]: below the threshold
- pKd [8, 27]: 3.6
- pKd [9, 27]: 3.57
- pKd [10, 27]: below the threshold
- pKd [11, 27]: below the threshold
- pKd [12, 27]: 5.14
- pKd [13, 27]: below the threshold
- pKd [14, 27]: below the threshold
- pKd [15, 27]: 3.77
- pKd [16, 27]: below the threshold
- pKd [17, 27]: below the threshold
- pKd [18, 27]: 4.22
- pKd [19, 27]: below the threshold
- pKd [20, 27]: below the threshold
- pKd [21, 27]: 5.23
- pKd [22, 27]: 3.74
- pKd [23, 27]: 5.32
- pKd [24, 27]: 3.96
